Our source for the Kd values is PMC10132761.

Where a chain is given by its changes, count along the chain named. Names and notes keep the numbering of the source.

The assay has as its target peptide encoding HTP-3 closure motif #4 (C. elegans). As to the kind of experiment: fluorescence polarisation; 50 nM N-terminal FITC-Ahx peptide plus indicated amounts of HIM-3 (WT or R93Y); 20 mM Tris pH 7.5, 300 mM NaCl, 10% glycerol, 1 mM DTT, 0.1% NP-40; 60 minutes at room temperature; triplicate; single-site binding model. For orientation: In fluorescence polarisation assays a small probe gives low polarisation when free and higher when bound to something large.

B1: HIM-3 (wildtype, residues 2-291) (natural protein)
chain: ATKEQIVEHRESEIPIASQWKATFPVDLEIEKNSEMFALRYIKCASAFILDRRGILDEKCFKTRTIDKLLVTAFQSSVPAAKRVSSTFDGLRDAIQQGYLREFAIVFYKKPNEEDINEVFAFRFAYGDEGEIFVSLNNGIDTNESSQELLQAKFVDTDNTKQMFASTIKKLHRCIKKMEPLPQGSDASFRVSYTEKAPKDYTPEGYLLSPMFYTLNQDIRKASIGIVCGGHHKIQMLAASQYLKQDFDLDKTTTLNPNMSIMANQSKRKGRISRDSPYGLSQGITKKNKD
For B1, the Kd (usually a measure of binding affinity in units of concentration) is 220 nM.

B2: HIM-3^R93Y (residues 2-291) (natural protein)
chain: B1 chain with R92Y
On to B2, for which the Kd amounted to 690 nM.
